Laboratory results: patent publication US20230331823A1 (HENRY M JACKSON FOUNDATION FOR THE ADVANCEMENT OF MILITARY …, published 2023)
Numbering of substitutions follows the chain as printed. Like-named read-outs stand apart in the source and are kept apart here.

B1: MoB3-3D8_Fc chimera antibody (Fc fusion)
chain: ARVDQTPQTITKETGESLTINCVLRDSNCALASTDWYRKKSGSTNEESISKGGRYVETVNSGSKSFSLRINDLTVEDSGTYRCNAWDSWETRQLKCDYDVYGGGTVVTVN
B2: ShAb01H06K (ShAb01Hole-06Knob) (bispecific antibody, V domains shown)
V domain 1: ARVDQTPRSVTKETGESLTINCVLRDSNCALSSTHWYRKKSGSTNEERILQGRRYVETVNSGSKSFSLRINDLRVEDSGTYRCKVYWGNSWQDKFCPGLGSYEYGDGTAVTVNS
V domain 2: ARVDQTPRSVTKETGESLTINCVLRDASYALGSTCWYRKKSGSTNEESISKGGRYVETVNSGSKSFSLRINDLTVEDGGTYRCGVGRGLGVGCDYPLCSYSYAACGDGTAVTVNS
B3: ShAb01-Foldon (ShAb01 VNAR-KESlinker-Foldon-3c-His8-Strep) (VNAR)
VNAR: B2 V domain 1 with S114K
B4: ShAb06H02K (ShAb06Hole-02Knob) (bispecific antibody, V domains shown)
V domain 1: B2 V domain 2
V domain 2: ARVDQTPQTITKETGESLTINCVLRDSNCALASTDWYRKKSGSTNEESISKGGRYVETVNSGSKSFSLRINDLTVEDSGTYRCNAWDSWETRQLKCDYDVYGGGTVVTVNS
B5: ShAb02-Foldon (ShAb02 VNAR-KESlinker-Foldon-3c-His8-Strep) (VNAR)
VNAR: B4 V domain 2 with S111K

Legend:
[1] = target: Spike Ferritin nanoparticle SpFN_pCoV1B-06-PL (PrefLead-S2P.1158op1-del-Ferritin) (SARS-CoV-2 Spike ectodomain fused to …); assay: BLI, Fc fusion on AHC probe, SpFN_pCoV1B-06-PL in solution
[2] = target: T1, SARS-CoV-2 Alpha (B.1.1.7) Spike on pseudovirions (SARS-CoV-2); assay: cell-based or functional assay
[3] = target: T2, SARS-CoV-2 Beta (B.1.351) Spike on pseudovirions (SARS-CoV-2); assay: cell-based or functional assay
[4] = target: T1, SARS-CoV-2 Alpha (B.1.1.7) Spike on …; assay: cell-based or functional assay; remark: listed apart in the source
[5] = target: T2, SARS-CoV-2 Beta (B.1.351) Spike on …; assay: cell-based or functional assay; remark: listed apart in the source

Binder | binding result [1] | pseudovirus neutralization IC50 [2] | pseudovirus neutralization IC80 [2] | pseudovirus neutralization IC50 [3] | pseudovirus neutralization IC80 [3] | pseudovirus neutralization IC50 [4] | pseudovirus neutralization IC50 [5]
B1 | binds | – | – | – | – | – | –
B2 | – | 1.37 µg/mL | 2.65 µg/mL | 1.28 µg/mL | 6.17 µg/mL | – | –
B3 | – | 0.119 µg/mL | 0.328 µg/mL | 0.075 µg/mL | 0.164 µg/mL | 0.12 µg/mL | 0.07 µg/mL
B4 | – | 0.109 µg/mL | 0.225 µg/mL | 0.18 µg/mL | 0.424 µg/mL | – | –
B5 | – | 0.035 µg/mL | 0.104 µg/mL | 0.397 µg/mL | 1.8 µg/mL | 0.04 µg/mL | 0.02 µg/mL
